According to patent publication US20060253917A1 (published 2006):

B1: Os006819-2510 aa 1-273 (other)
chain: MAFRLSNSLLGILNAVTFLLSVPVLGGGIWLATRADGTECERYFSAPVIAFGVFLLLVSLAGLVGACCRVNCLLWFYLVAMFVLIVVLFCFTVFAFVVTNKGAGEAVSGRGYKEYRLGDYSNWLQKRMENSKNWNRIRSCLQDSKVCKKLQDKNWDRTQFFKADLSPLESGCCKPPSSCNFLYVSGTNWTKVPTNSSDPDCNTWVDDGTQLCYNCQSCKAGAVATLKRDWKRVAVVCIVFLVFIVIVYSLGCCAFRNNRRDNRGAYRGAAWKG
notes: bait, Gal4 DBD fusion; also called PN20462
B5: Os006819-2510 aa 1-150 (other)
chain: MAFRLSNSLLGILNAVTFLLSVPVLGGGIWLATRADGTECERYFSAPVIAFGVFLLLVSLAGLVGACCRVNCLLWFYLVAMFVLIVVLFCFTVFAFVVTNKGAGEAVSGRGYKEYRLGDYSNWLQKRMENSKNWNRIRSCLQDSKVCKKL
notes: bait, Gal4 DBD fusion; also called PN20462; Hypothetical Protein 006819-2510, Similar to Senescence-Related Protein 5 from Hemerocallis Hybrid Cultivar
B14: OsHOS59 aa 1-100 (other)
chain: LDLFMTHYVLLLCSFKEQLQQHVRVHAMEAVMACWELEQTLQSLTGASPREGSGATMSDDEDNQVDSESNMFDGNDGSDGMGFGPLMLTEGERSLVERVR
notes: bait, Gal4 DBD fusion; also called PN20559; O. sativa Homeobox Protein HOS59, Fragment

Experiments:
OsPN23485 aa 90-243 = biological target: T1, OsPN23485 aa 90-243 (Oryza sativa, UniProt Q7XPL2 165-318); assay: Y2H; output trait library
T1 construct: prey, AD fusion; also called Novel Protein PN23485, Similar to Hordeum vulgare Coproporphyrinogen III Oxidase, chloroplast precursor
T1 sequence: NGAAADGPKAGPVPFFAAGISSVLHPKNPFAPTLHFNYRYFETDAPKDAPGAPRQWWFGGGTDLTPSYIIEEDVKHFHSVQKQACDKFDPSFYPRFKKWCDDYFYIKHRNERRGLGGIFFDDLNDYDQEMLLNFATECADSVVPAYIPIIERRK
How it was run: (§1)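 Protein-protein interactions were detected with an automated, high-throughput yeast two-hybrid assay provided by Myriad Genetics Inc. (Salt Lake City, Utah). A bait clone encoding a defined amino-acid fragment of a rice protein was screened against a rice prey library, either the input trait or the output trait library. Prey clones were retrieved, and their encoding sequences were compared by BLAST against databases to identify the interacting proteins.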

OsEXPB2 aa 80-207 = biological target: T2, OsEXPB2 aa 80-207 (Oryza sativa, UniProt O24230 80-207); assay: Y2H; input trait library
T2 construct: prey, AD fusion; also called PN19902; Beta-Expansin EXPB2
T2 sequence: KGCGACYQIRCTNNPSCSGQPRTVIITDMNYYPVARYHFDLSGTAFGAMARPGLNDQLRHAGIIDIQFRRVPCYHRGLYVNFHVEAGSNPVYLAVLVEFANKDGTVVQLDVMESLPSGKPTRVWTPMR
How it was run: as §1

OsE2F2 (367) aa 1-368 = biological target: T3, OsE2F2 (367) aa 1-368 (Oryza sativa); assay: Y2H; input trait library
T3 construct: bait, Gal4 DBD fusion; also called PN21003; E2F2 Homolog, Alt
How it was run: as §1

Os006819-2510 aa 1-273 = biological target: B1; assay: Y2H; output trait library
How it was run: as §1

OsAAK01712 aa 90-221 = biological target: T4, OsAAK01712 aa 90-221 (Oryza sativa, UniProt Q7Y0Y8 90-221); assay: Y2H; output trait library
T4 construct: prey, AD fusion; also called PN24059; O. sativa Histone Deacetylase HD1
How it was run: as §1

Os006819-2510 aa 1-150 [1] = biological target: B5; assay: Y2H; output trait library
How it was run: as §1

Os005792-3529 aa 1-55 = biological target: T5, Os005792-3529 aa 1-55 (Oryza sativa); assay: Y2H; output trait library
T5 construct: bait, Gal4 DBD fusion; also called PN20080; Hypothetical Protein 005792-3529 Similar to O. sativa Receptor Kinase
T5 chain: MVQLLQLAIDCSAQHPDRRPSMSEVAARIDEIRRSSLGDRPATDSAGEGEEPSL
How it was run: as §1

OsHOS59 aa 1-100 = biological target: B14; assay: Y2H; input trait library
How it was run: as §1

Os003181-3684 aa 58-140 = biological target: T6, Os003181-3684 aa 58-140 (Oryza sativa); assay: Y2H; output trait library
T6 construct: bait, Gal4 DBD fusion; also called PN21036; Hypothetical Protein 003181-3684
T6 chain: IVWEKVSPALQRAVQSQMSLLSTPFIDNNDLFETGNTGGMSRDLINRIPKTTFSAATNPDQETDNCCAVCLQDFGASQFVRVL
How it was run: as §1

OsPN23053 aa 1-180 = biological target: T7, OsPN23053 aa 1-180 (Oryza sativa, UniProt Q8W0H5 141-320); assay: Y2H; input trait library
T7 construct: prey, AD fusion; also called Novel Protein 23053, Fragment, Similar to Arabidopsis Putative Na+-Dependent Inorganic Phosphate Cotransporter
T7 sequence: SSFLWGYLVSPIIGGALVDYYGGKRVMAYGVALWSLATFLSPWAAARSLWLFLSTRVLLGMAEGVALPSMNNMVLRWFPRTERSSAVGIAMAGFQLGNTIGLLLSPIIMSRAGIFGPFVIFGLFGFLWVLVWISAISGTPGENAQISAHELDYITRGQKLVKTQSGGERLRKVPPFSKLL
How it was run: as §1

OsEXPB2 aa 80-218 = biological target: T8, OsEXPB2 aa 80-218 (Oryza sativa, UniProt O24230 80-218); assay: Y2H; input trait library
T8 construct: prey, AD fusion; also called PN19902
T8 sequence: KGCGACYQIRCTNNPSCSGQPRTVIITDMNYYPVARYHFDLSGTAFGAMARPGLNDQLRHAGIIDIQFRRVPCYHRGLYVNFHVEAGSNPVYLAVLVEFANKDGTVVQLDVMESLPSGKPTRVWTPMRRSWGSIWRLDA
How it was run: as §1

OsHOS59 aa 1-206 = biological target: T9, OsHOS59 aa 1-206 (Oryza sativa, UniProt Q94LW4 113-311); assay: Y2H; input trait library
T9 construct: bait, Gal4 DBD fusion; also called PN20559
T9 sequence: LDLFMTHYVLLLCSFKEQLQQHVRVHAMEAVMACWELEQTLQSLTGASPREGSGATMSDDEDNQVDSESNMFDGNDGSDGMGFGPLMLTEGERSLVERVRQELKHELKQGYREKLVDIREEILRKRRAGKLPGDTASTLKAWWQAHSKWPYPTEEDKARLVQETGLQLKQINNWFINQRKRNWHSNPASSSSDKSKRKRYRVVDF
How it was run: as §1

OsRBCL aa 287-462 = biological target: T10, OsRBCL aa 287-462 (Oryza sativa, UniProt P0C510 287-462); assay: Y2H; input trait library
T10 construct: prey, AD fusion; also called PN23426; O. sativa Chloroplast Ribulose Bisphosphate Carboxylase, Large Chain
How it was run: as §1

Os006819-2510 aa 1-150 [2] = biological target: B5; assay: Y2H; input trait library
How it was run: as §1

Os000221-3976 aa 123-238 = biological target: T11, Os000221-3976 aa 123-238 (Oryza sativa, UniProt Q07078 342-457); assay: Y2H; input trait library
T11 construct: prey, AD fusion; also called PN23169
How it was run: as §1

T3 sequence (chain, as listed by the source limits assumed): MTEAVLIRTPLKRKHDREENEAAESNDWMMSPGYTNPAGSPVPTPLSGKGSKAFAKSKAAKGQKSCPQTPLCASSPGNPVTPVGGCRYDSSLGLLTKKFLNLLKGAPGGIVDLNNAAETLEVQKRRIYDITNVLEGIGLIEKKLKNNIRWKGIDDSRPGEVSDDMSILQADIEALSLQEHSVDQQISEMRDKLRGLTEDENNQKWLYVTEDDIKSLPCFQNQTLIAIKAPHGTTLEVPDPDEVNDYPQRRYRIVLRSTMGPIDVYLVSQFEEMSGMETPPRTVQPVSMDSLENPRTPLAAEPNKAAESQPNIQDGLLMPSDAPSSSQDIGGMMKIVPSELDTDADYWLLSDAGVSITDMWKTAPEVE
T4 sequence (Q7Y0Y8 90-221): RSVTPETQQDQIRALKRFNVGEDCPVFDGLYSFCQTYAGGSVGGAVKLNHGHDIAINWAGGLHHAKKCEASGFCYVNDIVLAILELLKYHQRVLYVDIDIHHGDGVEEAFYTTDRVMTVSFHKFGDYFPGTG
T10 sequence (P0C510 287-462): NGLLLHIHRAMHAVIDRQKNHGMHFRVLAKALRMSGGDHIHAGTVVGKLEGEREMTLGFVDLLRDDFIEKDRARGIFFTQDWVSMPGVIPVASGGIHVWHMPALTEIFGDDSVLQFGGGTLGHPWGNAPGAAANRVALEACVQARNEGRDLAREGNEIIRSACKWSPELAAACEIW
T11 sequence (Q07078 342-457): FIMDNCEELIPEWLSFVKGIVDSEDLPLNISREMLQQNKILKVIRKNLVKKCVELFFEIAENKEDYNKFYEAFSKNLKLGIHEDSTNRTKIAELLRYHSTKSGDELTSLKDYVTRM

B1: binds (OsPN23485 aa 90-243).

B2: OsDAD1 aa 1-115 (other)
chain: MPRATSDAKLLIQSLGKAYAATPTNLKIIDLYVVFAVATALIQVVYMGIVGSFPFNSFLSGVLSCIGTAVLAVCLRIQVNKDNKEFKDLPPERAFADFVLCNLVLHLVIMNFLG
notes: bait, Gal4 DBD fusion; also called PN20251
B2: binds (OsEXPB2 aa 80-207).

B3: Os018989-4003 aa 69-294 (other)
chain: GGGGNAAEREEGGANRNGKKEKTGAQRITGWGLREFSKIVSKKVEAKGRTTYNEVADEIFAELKSITQNGLEFDEKNIRRRVYDAFNVLIAIRVIAKDKKEIKWMGLTNYRYEKIQKLEEVHKELITRIKNKKKLLQEIEKQFDDLQNITLRNQASQRPAESVNGILLPFLLIKTSRKARVEIEISEDSKFARFDFNGAPFTMHDDVSILEAIRRNKGRAGLSIHP
notes: prey, AD fusion; also called PN21044
B3: binds (OsE2F2 (367) aa 1-368).

B4: OsPN23226 aa 345-432 (other)
chain: WFMSNQETSFVTIGQRVLANPLRVRFHYGHPDIFDRLFHLTRGGVSKASKIINLSEDIFAGFNSTLREGNVTHHEYMQVGKGRDVGLN
notes: prey, AD fusion; also called Novel Protein PN23226, Callose synthase
B4: binds (Os006819-2510 aa 1-273).

B5: binds (OsAAK01712 aa 90-221).

B6: OsPN23878 aa 685-888 (other)
chain: IYEQGLVLQQLKCCGVLEVVRISRSGYPTRMTHQKFARRYGFLLLEDVASQDPLSVSVAILHQFNILPEMYQVGYTKLFFRTGQIGKLEDTRNRTLHGILRVQSCFRGHQARRHARERIRGVLALQSFIRGENARKMYSSLARKHRAAIILQRNLKCWLARRYFVNIRKASVVIQSGIRGCLVRRCAGNVDLLNVLREFESKKE
notes: prey, AD fusion; also called Oryza sativa Putative Myosin (AAL31066.1)
B6: binds (Os006819-2510 aa 1-150 [1]).

B7: OsPN23829 aa 3-220 (other)
chain: LSVEKTSSGREYKVKDLSQADFGRLEIELAEVEMPGLMACRAEFGPSQPFKGARISGSLHMTIQTAVLIETLTALGAEVRWCSCNIFSTQDHAAAAIARDSAAVFAWKGETLEEYWWCTERCLDWGVGGGPDLIVDDGGDATLLIHEGVKAEEEFEKSGKVPDPESTDNAEFKIVLTIIRDGLKSDPSKYRKMKERLVGVSEETTTGVKRLYQMQETG
notes: prey, AD fusion
B7: binds (Os005792-3529 aa 1-55).

B8: OsAAD27557 aa 7-142 (other)
chain: DFQPRTFSIKLWPPSESTRLMLVERMTKNLSTESIFSRKYGLLGKEEAHDNAKRIEEVCFASADEHFKEEPDGDGSSAVQLYAKETSKLMLEVLKRGPRTTVEPEVPVADTPLEPADSVFDISGGKRAFIEADEAK
notes: prey, AD fusion; also called PN22896
B8: binds (OsHOS59 aa 1-100).

B9: OsAAD27557 aa 1-149 (other)
chain: MDSTKQDFQPRTFSIKLWPPSESTRLMLVERMTKNLSTESIFSRKYGLLGKEEAHDNAKRIEEVCFASADEHFKEEPDGDGSSAVQLYAKETSKLMLEVLKRGPRTTVEPEVPVADTPLEPADSVFDISGGKRAFIEADEAKELLSPLI
notes: as for B8
B9: binds (Os003181-3684 aa 58-140).

B10: OsDAD1 aa 30-115 (other)
chain: DLYVVFAVATALIQVVYMGIVGSFPFNSFLSGVLSCIGTAVLAVCLRIQVNKDNKEFKDLPPERAFADFVLCNLVLHLVIMNFLG
notes: bait, Gal4 DBD fusion; also called PN20251; O. sativa Defender Against Apoptotic Death 1
B10: binds (OsPN23053 aa 1-180); binds (OsEXPB2 aa 80-218).

B11: OsPN23251 aa 112-291 (other)
chain: DMNLITDQDFTELVQKVPDDCLFTIVSDSCHSGGLLDKTKEQIGHSTKQNQAQQIKREERSDSGTGGFRSFLKETLKETVRDAFESRGVHIPHQSSRRNDDEDEEPHMGSSSHGGDRIKNRSLPLSTLIEMLKEKTGKDDIDVGSIRMTLFSLFGDDASPKIKKFMKVMLTKLQEGQHGG
notes: prey, AD fusion; also called Novel Protein PN23251
B11: binds (OsHOS59 aa 1-206).

B12: OsGF14-c aa 1-150 (other)
chain: MSREENVYMAKLAEQAERYEEMVEYMEKVAKTVDVEELTVEERNLLSVAYKNVIGARRASWRIVSSIEQKEEGRGNEEHVTLIKEYRGKIEAELSKICDGILKLLDSHLVPSSTAAESKVFYLKMKGDYHRYLAEFKTGAERKEAAESTM
notes: bait, Gal4 DBD fusion; also called PN12464; O. sativa 14-3-3 Protein Homolog GF14-c
B12: binds (OsRBCL aa 287-462).

B13: OsPN29037 aa 73-165 (other)
chain: VVFDKDGVLEQIGEGKGYVDMSTVDAATSCKISEAIKQKGGAFVEAPVSGSKKPAEDGQLVILAAGDKVLYDDMVPAFDVLGKKSFFLGEIGN
notes: prey, AD fusion; also called Novel Protein PN29037
B13: binds (Os006819-2510 aa 1-150 [2]).

B14: binds (Os000221-3976 aa 123-238).
